The source of these data is article PMC5651819, “AtSPX1 affects the AtPHR1–DNA-binding equilibrium by binding monomeric AtPHR1 in solution” (Biochemical Journal, 2017).

This assay concerns the target T1, MBP–AtdPHR1 (DNA-binding domain and coiled-coil domain of AtPHR1 fused to maltose-binding protein) (Arabidopsis thaliana, UniProt Q94CL7 208-362).
T1 construct: cloned in pMAL-c2x via BamHI and HindIII; the methods print 208–362, and the predicted mass of 60 651 fits 208–362 with MBP; also called MBPdAtPHR1; MBPdPHR1; source: E. coli BL21-gold (DE3), purified (amylose resin, IEX on HiTrap Q-HP); not shown: MBP, N-terminal, kept
The assay is described as follows: pull-down; MBP–AtdPHR1 from cell lysate immobilised on amylose matrix and washed, incubated with affinity-purified GST–AtSPX1 for 2 h at 4°C, eluted with 10 mM maltose, anti-GST blot; buffer with Pi (PBS pH 7.4, 200 mM NaCl, 1 mM EDTA, 1 mM DTT), compared with buffer without Pi (20 mM Tris pH 7.5, 200 mM NaCl, 1 mM EDTA, 1 mM DTT). The settings on record: both partners purified.

T1 sequence (Q94CL7 208-362): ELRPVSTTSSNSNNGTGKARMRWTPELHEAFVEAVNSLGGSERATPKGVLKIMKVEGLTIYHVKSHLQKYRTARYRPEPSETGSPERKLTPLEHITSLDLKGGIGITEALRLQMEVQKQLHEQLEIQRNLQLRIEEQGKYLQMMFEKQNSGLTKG

B1: GST–AtSPX1 (N-terminal GST-tagged full-length AtSPX1) (natural protein, Arabidopsis thaliana, UniProt Q8LBH4 1-256, looked up)
chain: MKFGKSLSNQIEQTLPEWQDKFLSYKELKKRLKLIGSKTADRPVKRLRLDEFSVGISKEEINFIQLLEDELEKFNNFFVEKEEEYIIRLKEFRDRIAKAKDSMEKMIKIRKEIVDFHGEMVLLENYSALNYTGLVKILKKYDKRTGDLMRLPFIQKVLQQPFYTTDLLFKLVKESEAMLDQIFPANETESEIIQAELSEHKFMESLHMKSTIAALRVLKEIRSGSSTVSVFSLPPLQLNGLDETWKKIPLLEQEAK
notes: AtSPX1, Arabidopsis thaliana, At5G20150.1, full-length cDNA in pGEX-2T via BamHI and EcoRI; also called GST–SPX1; not shown: GST, N-terminal, kept
B1: the “fold more in elution fraction E1 in the presence of phosphate than in its absence” value turned out to be 1.5 fold and the “fold more in elution fraction E2 in the presence of phosphate than in its absence” value stood at 3.5 fold.
